Paper PMC5290284, “Portal protein functions akin to a DNA-sensor that couples genome-packaging to icosahedral capsid maturation” (Nature Communications, 2017)

T1: P22 MV-portal rings coupled to CNBr-activated Sepharose beads (bacteriophage P22, UniProt P26744 1-725)
T1 construct: Portal protein (gp1) of bacteriophage P22; Mature virion conformation; also called MV-portal protein; MV-portal beads; source: E. coli BL21 (DE3), purified (Ni-agarose, Superose 12); copies: 12
T1 sequence (looked up): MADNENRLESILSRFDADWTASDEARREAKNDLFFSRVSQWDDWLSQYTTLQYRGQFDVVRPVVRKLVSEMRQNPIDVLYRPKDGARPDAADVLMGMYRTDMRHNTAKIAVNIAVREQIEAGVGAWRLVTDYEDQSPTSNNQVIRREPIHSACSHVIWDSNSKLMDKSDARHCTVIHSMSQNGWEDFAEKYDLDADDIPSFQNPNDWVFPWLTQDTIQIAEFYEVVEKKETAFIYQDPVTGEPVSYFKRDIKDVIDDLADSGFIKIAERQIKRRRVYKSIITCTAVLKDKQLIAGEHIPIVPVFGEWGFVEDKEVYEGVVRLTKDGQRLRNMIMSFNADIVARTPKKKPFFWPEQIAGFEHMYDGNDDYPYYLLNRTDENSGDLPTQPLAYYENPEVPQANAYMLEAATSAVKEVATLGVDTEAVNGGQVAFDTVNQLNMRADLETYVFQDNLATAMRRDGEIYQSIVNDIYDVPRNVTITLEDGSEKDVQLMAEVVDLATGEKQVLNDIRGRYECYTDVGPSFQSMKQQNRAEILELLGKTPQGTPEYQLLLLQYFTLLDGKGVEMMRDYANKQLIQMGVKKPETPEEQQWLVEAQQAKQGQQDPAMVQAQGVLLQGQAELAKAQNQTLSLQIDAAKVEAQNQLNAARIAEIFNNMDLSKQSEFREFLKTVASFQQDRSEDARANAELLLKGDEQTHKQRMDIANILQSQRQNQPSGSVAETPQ

T2: P22 PC-portal rings coupled to CNBr-activated Sepharose beads (bacteriophage P22, UniProt P26744 1-725)
T2 construct: Portal protein (gp1) of bacteriophage P22; Procapsid conformation; also called PC-portal protein; PC-portal beads; source: E. coli BL21 (DE3), purified (Ni-NTA, Superose 6); copies: 12
T2 sequence (looked up): T1 sequence (looked up)

B1: P22 tail factor gp4 (natural protein, bacteriophage P22, UniProt P26746 1-166, looked up)
chain: MQIKTKGDLVRAALRKLGVASDATLTDVEPQSMQDAVDDLEAMMAEWYQDGKGIITGYVFSDDENPPAEGDDHGLRSSAVSAVFHNLACRIAPDYALEATAKIIATAKYGKELLYKQTAISRAKRAPYPSRMPTGSGNSFANLNEWHYFPGEQNADSTTPHDEGNG
notes: Tail factor gp4 of bacteriophage P22; source: E. coli BL21 (DE3), purified (Ni-agarose, Superdex 75)
B2: P22 PC-portal protein core (res. 1–602), procapsid conformation (domain or fragment, bacteriophage P22, UniProt P26744 1-602, looked up)
chain: MADNENRLESILSRFDADWTASDEARREAKNDLFFSRVSQWDDWLSQYTTLQYRGQFDVVRPVVRKLVSEMRQNPIDVLYRPKDGARPDAADVLMGMYRTDMRHNTAKIAVNIAVREQIEAGVGAWRLVTDYEDQSPTSNNQVIRREPIHSACSHVIWDSNSKLMDKSDARHCTVIHSMSQNGWEDFAEKYDLDADDIPSFQNPNDWVFPWLTQDTIQIAEFYEVVEKKETAFIYQDPVTGEPVSYFKRDIKDVIDDLADSGFIKIAERQIKRRRVYKSIITCTAVLKDKQLIAGEHIPIVPVFGEWGFVEDKEVYEGVVRLTKDGQRLRNMIMSFNADIVARTPKKKPFFWPEQIAGFEHMYDGNDDYPYYLLNRTDENSGDLPTQPLAYYENPEVPQANAYMLEAATSAVKEVATLGVDTEAVNGGQVAFDTVNQLNMRADLETYVFQDNLATAMRRDGEIYQSIVNDIYDVPRNVTITLEDGSEKDVQLMAEVVDLATGEKQVLNDIRGRYECYTDVGPSFQSMKQQNRAEILELLGKTPQGTPEYQLLLLQYFTLLDGKGVEMMRDYANKQLIQMGVKKPETPEEQQWLVEAQQAKQG
notes: Portal protein (gp1) of bacteriophage P22, core, residues 1–602; Asymmetric dodecamer; also called PC-portal core; portal-602; copies: 12

Tests used:
[1] = target: T1, P22 MV-portal rings coupled to …; experiment: pull-down; PC- or MV-portal rings immobilized on CNBr-activated Sepharose 4B beads; soluble protein added (L-terminase pre-complexed with non-hydrolyzable ATP); bound and unbound fractions on SDS–PAGE; conditions: both partners purified
[2] = target: T2, P22 PC-portal rings coupled to …; experiment: as above; conditions: both partners purified
[3] = target: the molecule itself; experiment: crystal structure; PC-portal core at 10 mg/ml, 5% PEG 8,000, 10 mM caesium chloride, pH 5.6, 22 °C; 3.30 Å; whole dodecamer in the asymmetric unit

Binder | stoichiometry N [1] [gp4 equivalents] | stoichiometry N [2] [gp4 equivalents] | stoichiometry N [3] [protomers]
B1 | 11 ± 1 | 11.4 ± 1 | 
B2 |  |  | 12
